T1: Era fused to SB (small bit of luciferase) (S. aureus, UniProt Q2FGF6 1-299)
T1 construct: GTPase Era, Staphylococcus aureus; For the Era-Era pair the second copy of Era was fused to the large bit (LB); also called EraSB; full-length Era; source: S. aureus LAC*, expressed from pAP118 with Atet, in cells
T1 sequence (looked up): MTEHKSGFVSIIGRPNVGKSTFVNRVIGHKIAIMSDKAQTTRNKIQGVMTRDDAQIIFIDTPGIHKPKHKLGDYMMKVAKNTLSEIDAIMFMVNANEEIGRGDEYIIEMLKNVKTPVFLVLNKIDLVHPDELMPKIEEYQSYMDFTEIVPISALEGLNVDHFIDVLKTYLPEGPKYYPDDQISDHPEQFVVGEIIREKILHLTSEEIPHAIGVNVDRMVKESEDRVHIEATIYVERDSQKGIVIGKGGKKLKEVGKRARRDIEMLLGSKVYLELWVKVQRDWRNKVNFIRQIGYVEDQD


How the values were obtained:
GST-CshA = target: T2, GST-CshA (S. aureus, UniProt Q2FF45 1-506); assay: pull-down; 1 uM GST or GST fusion coupled to glutathione beads; incubated with His-tagged protein (printed 1 pM) in 25 mM Tris pH 7.5, 150 mM NaCl, 5 mM MgCl2, 0.5% Triton X-100 at 4°C overnight; eluted with glutathione; blot with anti-His-HRP; details: both partners purified
T2 construct: DEAD-box RNA helicase CshA, Staphylococcus aureus; also called GST-tagged CshA; not shown: GST, N-terminal, kept

[1] = target: T1, Era fused to SB (small bit of …); assay: split reporter (BiFC, NanoBiT); split luciferase (SB and LB fusions from pAP118) in S. aureus LAC*; 100 ng/ml Atet for 90 min, normalised to OD600 0.1, Nano-Glo; luminescence relative to a control with one fusion only; details: partners not purified

Binder | binding result (GST-CshA) | fold increase in luciferase activity [1]
His-tagged Era (natural protein, S. aureus, UniProt Q2FGF6 1-299, looked up, GTPase Era, Staphylococcus aureus; also called His-Era; recombinant Era) MTEHKSGFVSIIGRPNVGKSTFVNRVIGHKIAIMSDKAQTTRNKIQGVMTRDDAQIIFIDTPGIHKPKHKLGDYMMKVAKNTLSEIDAIMFMVNANEEIGRGDEYIIEMLKNVKTPVFLVLNKIDLVHPDELMPKIEEYQSYMDFTEIVPISALEGLNVDHFIDVLKTYLPEGPKYYPDDQISDHPEQFVVGEIIREKILHLTSEEIPHAIGVNVDRMVKESEDRVHIEATIYVERDSQKGIVIGKGGKKLKEVGKRARRDIEMLLGSKVYLELWVKVQRDWRNKVNFIRQIGYVEDQD | binds | –
full-length CshA fused to LB (large bit of luciferase) (natural protein, S. aureus, UniProt Q2FF45 1-506, looked up, DEAD-box RNA helicase CshA, Staphylococcus aureus, 506 residues by the printed domain limits; also called CshALB; source: S. aureus LAC*, expressed from pAP118 with Atet, in cells) MQNFKELGISDNTVQSLESMGFKEPTPIQKDSIPYALQGIDILGQAQTGTGKTGAFGIPLIEKVVGKQGVQSLILAPTRELAMQVAEQLREFSRGQGVQVVTVFGGMPIERQIKALKKGPQIVVGTPGRVIDHLNRRTLKTDGIHTLILDEADEMMNMGFIDDMRFIMDKIPAVQRQTMLFSATMPKAIQALVQQFMKSPKIIKTMNNEMSDPQIEEFYTIVKELEKFDTFTNFLDVHQPELAIVFGRTKRRVDELTSALISKGYKAEGLHGDITQAKRLEVLKKFKNDQINILVATDVAARGLDISGVSHVYNFDIPQDTESYTHRIGRTGRAGKEGIAVTFVNPIEMDYIRQIEDANGRKMSALRPPHRKEVLQAREDDIKEKVENWMSKESESRLKRISTELLNEYNDVDLVAALLQELVEANDEVEVQLTFEKPLSRKGRNGKPSGSRNRNSKRGNPKFDSKSKRSKGYSSKKKSTKKFDRKEKSSGGSRPMKGRTFADHQK | – | 4 fold

— doi:10.1101/477745, “The (p)ppGpp-binding GTPase Era promotes rRNA processing and cold shock survival in Staphylococcus aureus” (bioRxiv, 2019)
